These results are taken from US20260193293A1, “PEPTIDES CAPABLE OF INHIBITING PROTEIN-PROTEIN INTERACTIONS AT GABAB1A SUBUNIT AND USES THEREOF” (UNIVERSITY OF COPENHAGEN, priority 2022, published 2026).

Starred links: 1 amine or outer side, 2 acyl side, 3 side chain; linkers in the order of their positions; H or OH if unused. Non-standard residues stand in square brackets, D forms with d. Tyr(Bzl) = Obtyr, O-benzyl-L-tyrosine, O=C([C@H](Cc1ccc(OCc2ccccc2)cc1)N[*:1])[*:2]; Tyr(Et) = Oetyr, O-ethyl-L-tyrosine, CCOc1ccc(C[C@H](N[*:1])C(=O)[*:2])cc1; Tyr(Me) = Omtyr, O-methyl-L-tyrosine, COc1ccc(C[C@H](N[*:1])C(=O)[*:2])cc1; Obtyr = O-benzyl-L-tyrosine, O=C([C@H](Cc1ccc(OCc2ccccc2)cc1)N[*:1])[*:2]; Oetyr = O-ethyl-L-tyrosine, CCOc1ccc(C[C@H](N[*:1])C(=O)[*:2])cc1; Phe(4-tBu) = CC(C)(C)c1ccc(C[C@H](N)C(=O)O)cc1; Phe(4-NH2) = Nc1ccc(C[C@H](N)C(=O)O)cc1; Phe(4-F) = N[C@@H](Cc1ccc(F)cc1)C(=O)O; 1Nal = N[C@@H](Cc1cccc2ccccc12)C(=O)O; 2Nal = N[C@@H](Cc1ccc2ccccc2c1)C(=O)O; Cya = N[C@@H](CS(=O)(=O)O)C(=O)O; 3Pal = N[C@@H](Cc1cccnc1)C(=O)O; 4Pal = N[C@@H](Cc1ccncc1)C(=O)O

B1: peptide 20 (peptide)
peptide: EDDDAIDWYDSDDD
modifications: N-terminal acetyl; C-terminal amide; 2Nala (3-(2-naphthyl)-L-alanine) at position 5
B2: peptide 32 (peptide)
peptide: Ac-EDDD[Oetyr]IDWYDSDDD-NH2
SMILES: CCOc1ccc(C[C@H](NC(=O)[C@H](CC(=O)O)NC(=O)[C@H](CC(=O)O)NC(=O)[C@H](CC(=O)O)NC(=O)[C@H](CCC(=O)O)NC(C)=O)C(=O)N[C@H](C(=O)N[C@@H](CC(=O)O)C(=O)N[C@@H](Cc2c[nH]c3ccccc23)C(=O)N[C@@H](Cc2ccc(O)cc2)C(=O)N[C@@H](CC(=O)O)C(=O)N[C@@H](CO)C(=O)N[C@@H](CC(=O)O)C(=O)N[C@@H](CC(=O)O)C(=O)N[C@@H](CC(=O)O)C(N)=O)[C@@H](C)CC)cc1
B3: EDDSDVW(2Nala)GGADTD (peptide)
peptide: Ac-EDDSDVW[2Nal]GGADTD-NH2
SMILES: CC(=O)N[C@@H](CCC(=O)O)C(=O)N[C@@H](CC(=O)O)C(=O)N[C@@H](CC(=O)O)C(=O)N[C@@H](CO)C(=O)N[C@@H](CC(=O)O)C(=O)N[C@H](C(=O)N[C@@H](Cc1c[nH]c2ccccc12)C(=O)N[C@@H](Cc1ccc2ccccc2c1)C(=O)NCC(=O)NCC(=O)N[C@@H](C)C(=O)N[C@@H](CC(=O)O)C(=O)N[C@H](C(=O)N[C@@H](CC(=O)O)C(N)=O)[C@@H](C)O)C(C)C
B4: peptide 35 (peptide)
peptide: Ac-EDDD[Obtyr]IDWGPTSDDD-NH2
SMILES: CC[C@H](C)[C@H](NC(=O)[C@H](Cc1ccc(OCc2ccccc2)cc1)NC(=O)[C@H](CC(=O)O)NC(=O)[C@H](CC(=O)O)NC(=O)[C@H](CC(=O)O)NC(=O)[C@H](CCC(=O)O)NC(C)=O)C(=O)N[C@@H](CC(=O)O)C(=O)N[C@@H](Cc1c[nH]c2ccccc12)C(=O)NCC(=O)N1CCC[C@H]1C(=O)N[C@H](C(=O)N[C@@H](CO)C(=O)N[C@@H](CC(=O)O)C(=O)N[C@@H](CC(=O)O)C(=O)N[C@@H](CC(=O)O)C(N)=O)[C@@H](C)O
B5: EDDS(Oetyr)… (peptide)
peptide: Ac-EDDS[Tyr(Et)]VWWGGADTD-NH2
SMILES: CCOc1ccc(C[C@H](NC(=O)[C@H](CO)NC(=O)[C@H](CC(=O)O)NC(=O)[C@H](CC(=O)O)NC(=O)[C@H](CCC(=O)O)NC(C)=O)C(=O)N[C@H](C(=O)N[C@@H](Cc2c[nH]c3ccccc23)C(=O)N[C@@H](Cc2c[nH]c3ccccc23)C(=O)NCC(=O)NCC(=O)N[C@@H](C)C(=O)N[C@@H](CC(=O)O)C(=O)N[C@H](C(=O)N[C@@H](CC(=O)O)C(N)=O)[C@@H](C)O)C(C)C)cc1
B6: EDDS(Omtyr)… (peptide)
peptide: Ac-EDDS[Tyr(Me)]VWWGGADTD-NH2
SMILES: COc1ccc(C[C@H](NC(=O)[C@H](CO)NC(=O)[C@H](CC(=O)O)NC(=O)[C@H](CC(=O)O)NC(=O)[C@H](CCC(=O)O)NC(C)=O)C(=O)N[C@H](C(=O)N[C@@H](Cc2c[nH]c3ccccc23)C(=O)N[C@@H](Cc2c[nH]c3ccccc23)C(=O)NCC(=O)NCC(=O)N[C@@H](C)C(=O)N[C@@H](CC(=O)O)C(=O)N[C@H](C(=O)N[C@@H](CC(=O)O)C(N)=O)[C@@H](C)O)C(C)C)cc1
B7: EDDSDVW(1Nala)GGADTD (peptide)
peptide: Ac-EDDSDVW[1Nal]GGADTD-NH2
SMILES: CC(=O)N[C@@H](CCC(=O)O)C(=O)N[C@@H](CC(=O)O)C(=O)N[C@@H](CC(=O)O)C(=O)N[C@@H](CO)C(=O)N[C@@H](CC(=O)O)C(=O)N[C@H](C(=O)N[C@@H](Cc1c[nH]c2ccccc12)C(=O)N[C@@H](Cc1cccc2ccccc12)C(=O)NCC(=O)NCC(=O)N[C@@H](C)C(=O)N[C@@H](CC(=O)O)C(=O)N[C@H](C(=O)N[C@@H](CC(=O)O)C(N)=O)[C@@H](C)O)C(C)C
B8: EDDSDVW(Obtyr)GGADTD (peptide)
peptide: Ac-EDDSDVW[Tyr(Bzl)]GGADTD-NH2
SMILES: CC(=O)N[C@@H](CCC(=O)O)C(=O)N[C@@H](CC(=O)O)C(=O)N[C@@H](CC(=O)O)C(=O)N[C@@H](CO)C(=O)N[C@@H](CC(=O)O)C(=O)N[C@H](C(=O)N[C@@H](Cc1c[nH]c2ccccc12)C(=O)N[C@@H](Cc1ccc(OCc2ccccc2)cc1)C(=O)NCC(=O)NCC(=O)N[C@@H](C)C(=O)N[C@@H](CC(=O)O)C(=O)N[C@H](C(=O)N[C@@H](CC(=O)O)C(N)=O)[C@@H](C)O)C(C)C
B9: peptide 21 (peptide)
peptide: Ac-EDDD[2Nal]IDWGPTSDDD-NH2
SMILES: CC[C@H](C)[C@H](NC(=O)[C@H](Cc1ccc2ccccc2c1)NC(=O)[C@H](CC(=O)O)NC(=O)[C@H](CC(=O)O)NC(=O)[C@H](CC(=O)O)NC(=O)[C@H](CCC(=O)O)NC(C)=O)C(=O)N[C@@H](CC(=O)O)C(=O)N[C@@H](Cc1c[nH]c2ccccc12)C(=O)NCC(=O)N1CCC[C@H]1C(=O)N[C@H](C(=O)N[C@@H](CO)C(=O)N[C@@H](CC(=O)O)C(=O)N[C@@H](CC(=O)O)C(=O)N[C@@H](CC(=O)O)C(N)=O)[C@@H](C)O
B10: EDDS(3Pal)… (peptide)
peptide: Ac-EDDS[3Pal]VWWGGADTD-NH2
SMILES: CC(=O)N[C@@H](CCC(=O)O)C(=O)N[C@@H](CC(=O)O)C(=O)N[C@@H](CC(=O)O)C(=O)N[C@@H](CO)C(=O)N[C@@H](Cc1cccnc1)C(=O)N[C@H](C(=O)N[C@@H](Cc1c[nH]c2ccccc12)C(=O)N[C@@H](Cc1c[nH]c2ccccc12)C(=O)NCC(=O)NCC(=O)N[C@@H](C)C(=O)N[C@@H](CC(=O)O)C(=O)N[C@H](C(=O)N[C@@H](CC(=O)O)C(N)=O)[C@@H](C)O)C(C)C
B11: peptide 33 (peptide)
peptide: Ac-EDDD[Obtyr]IDWYDSDDD-NH2
SMILES: CC[C@H](C)[C@H](NC(=O)[C@H](Cc1ccc(OCc2ccccc2)cc1)NC(=O)[C@H](CC(=O)O)NC(=O)[C@H](CC(=O)O)NC(=O)[C@H](CC(=O)O)NC(=O)[C@H](CCC(=O)O)NC(C)=O)C(=O)N[C@@H](CC(=O)O)C(=O)N[C@@H](Cc1c[nH]c2ccccc12)C(=O)N[C@@H](Cc1ccc(O)cc1)C(=O)N[C@@H](CC(=O)O)C(=O)N[C@@H](CO)C(=O)N[C@@H](CC(=O)O)C(=O)N[C@@H](CC(=O)O)C(=O)N[C@@H](CC(=O)O)C(N)=O
B12: EDDS(1Nala)… (peptide)
peptide: Ac-EDDS[1Nal]VWWGGADTD-NH2
SMILES: CC(=O)N[C@@H](CCC(=O)O)C(=O)N[C@@H](CC(=O)O)C(=O)N[C@@H](CC(=O)O)C(=O)N[C@@H](CO)C(=O)N[C@@H](Cc1cccc2ccccc12)C(=O)N[C@H](C(=O)N[C@@H](Cc1c[nH]c2ccccc12)C(=O)N[C@@H](Cc1c[nH]c2ccccc12)C(=O)NCC(=O)NCC(=O)N[C@@H](C)C(=O)N[C@@H](CC(=O)O)C(=O)N[C@H](C(=O)N[C@@H](CC(=O)O)C(N)=O)[C@@H](C)O)C(C)C
B13: EDDS(4Pal)… (peptide)
peptide: Ac-EDDS[4Pal]VWWGGADTD-NH2
SMILES: CC(=O)N[C@@H](CCC(=O)O)C(=O)N[C@@H](CC(=O)O)C(=O)N[C@@H](CC(=O)O)C(=O)N[C@@H](CO)C(=O)N[C@@H](Cc1ccncc1)C(=O)N[C@H](C(=O)N[C@@H](Cc1c[nH]c2ccccc12)C(=O)N[C@@H](Cc1c[nH]c2ccccc12)C(=O)NCC(=O)NCC(=O)N[C@@H](C)C(=O)N[C@@H](CC(=O)O)C(=O)N[C@H](C(=O)N[C@@H](CC(=O)O)C(N)=O)[C@@H](C)O)C(C)C
B14: ETEFI(Cya)WGPTGDED (peptide)
peptide: Ac-ETEFI[Cya]WGPTGDED-NH2
SMILES: CC[C@H](C)[C@H](NC(=O)[C@H](Cc1ccccc1)NC(=O)[C@H](CCC(=O)O)NC(=O)[C@@H](NC(=O)[C@H](CCC(=O)O)NC(C)=O)[C@@H](C)O)C(=O)N[C@@H](CS(=O)(=O)O)C(=O)N[C@@H](Cc1c[nH]c2ccccc12)C(=O)NCC(=O)N1CCC[C@H]1C(=O)N[C@H](C(=O)NCC(=O)N[C@@H](CC(=O)O)C(=O)N[C@@H](CCC(=O)O)C(=O)N[C@@H](CC(=O)O)C(N)=O)[C@@H](C)O
B15: peptide 34 (peptide)
peptide: Ac-EDDD[Oetyr]IDWGPTSDDD-NH2
SMILES: CCOc1ccc(C[C@H](NC(=O)[C@H](CC(=O)O)NC(=O)[C@H](CC(=O)O)NC(=O)[C@H](CC(=O)O)NC(=O)[C@H](CCC(=O)O)NC(C)=O)C(=O)N[C@H](C(=O)N[C@@H](CC(=O)O)C(=O)N[C@@H](Cc2c[nH]c3ccccc23)C(=O)NCC(=O)N2CCC[C@H]2C(=O)N[C@H](C(=O)N[C@@H](CO)C(=O)N[C@@H](CC(=O)O)C(=O)N[C@@H](CC(=O)O)C(=O)N[C@@H](CC(=O)O)C(N)=O)[C@@H](C)O)[C@@H](C)CC)cc1
B16: Scr-20 (peptide)
peptide: Ac-[2Nal]EDSDDYDDIDDDW-NH2
SMILES: CC[C@H](C)[C@H](NC(=O)[C@H](CC(=O)O)NC(=O)[C@H](CC(=O)O)NC(=O)[C@H](Cc1ccc(O)cc1)NC(=O)[C@H](CC(=O)O)NC(=O)[C@H](CC(=O)O)NC(=O)[C@H](CO)NC(=O)[C@H](CC(=O)O)NC(=O)[C@H](CCC(=O)O)NC(=O)[C@H](Cc1ccc2ccccc2c1)NC(C)=O)C(=O)N[C@@H](CC(=O)O)C(=O)N[C@@H](CC(=O)O)C(=O)N[C@@H](CC(=O)O)C(=O)N[C@@H](Cc1c[nH]c2ccccc12)C(N)=O

Sushi domains (SD1/2) protein of GABAB1a (GB1a), sequence (Q9Z0U4 29-158): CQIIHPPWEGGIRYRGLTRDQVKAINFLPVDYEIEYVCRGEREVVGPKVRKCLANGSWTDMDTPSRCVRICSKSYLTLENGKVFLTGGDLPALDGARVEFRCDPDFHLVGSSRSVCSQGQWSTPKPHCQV

The first experiment concerns the target Sushi domains (SD1/2) protein of GABAB1a (GB1a). As to the kind of experiment: FP competition vs TAMRA AJAP-1probe.
As to B1, the Ki came out at 0.0015 µM.
On the same count and under the same terms, for B2 the value was 0.0053 µM; for B3, 0.814 µM.
On the same count and under the same terms, for B4 the value was 0.0095 µM; for B5, 0.046 µM.
In the case of Ac-EDDS[Phe(4-tBu)]VWWGGADTD-NH2 [EDDS(Buphe)…], the Ki worked out at 0.269 µM.
On the same count and under the same terms, for B6 the value was 0.101 µM; for B7, 0.499 µM; for B8, 3.86 µM.
On the same count and under the same terms, as for B9, the figure is 0.0053 µM; as for B10, 0.373 µM; as for Ac-EDDS[Phe(4-F)]VWWGGADTD-NH2 [EDDS(Fphe)…], 0.117 µM.
For the molecule B11, the Ki was 0.0093 µM.
Same read-out and setting: as for B12, the figure is 0.069 µM.
Molecule B13 registered a Ki of 0.424 µM.
Still for that read-out and setting: as for B14, the figure is 0.012 µM.
On the same count and under the same terms, as for B15, the figure is 0.0065 µM.
Same read-out and setting: as for Ac-EDDS[Phe(4-NH2)]VWWGGADTD-NH2 [EDDS(Aphe)…], the figure is 0.184 µM; as for B16, 31.2 µM.

The target of another experiment is Sushi domains (SD1/2) protein of the GABAB1a (GB1a) subunit, recombinant. As to the kind of experiment: FP competition.
Sushi domains (SD1/2) protein of the GABAB1a (GB1a) subunit, recombinant, sequence (Q9Z0U4 29-158): as above
Take B5: the Ki came to 0.0463 µM and the fold increased affinity compared to Asp207Trp was found to be 2 fold.

For orientation: Ki means the dissociation constant of the complex between target and ligand, obtained from inhibition or displacement.
